Literature values as cited in publication PMC7619008.

Target: substance P (Rattus norvegicus) (UniProt P06767)
UniProt P06767, sequence (P06767 whole entry, looked up): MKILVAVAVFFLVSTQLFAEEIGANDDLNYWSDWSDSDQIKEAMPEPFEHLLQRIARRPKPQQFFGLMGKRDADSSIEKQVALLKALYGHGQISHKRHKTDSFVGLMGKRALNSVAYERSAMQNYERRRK

For NK1 receptor (from UniProt P14600), the Kd is given as 3 nM.
